Paper PMC3042951 (The journal of physical chemistry. B, 2010)

Biological target: the molecule itself
Experiment: cross-linking

B1: native human LysRS (70–584) T285C (enzyme)
chain: not shown
In the case of B1, the “stoichiometry N” value is reported as 2.
